T1: RexA (Bacteriophage lambda, UniProt P68924 1-279)
T1 sequence: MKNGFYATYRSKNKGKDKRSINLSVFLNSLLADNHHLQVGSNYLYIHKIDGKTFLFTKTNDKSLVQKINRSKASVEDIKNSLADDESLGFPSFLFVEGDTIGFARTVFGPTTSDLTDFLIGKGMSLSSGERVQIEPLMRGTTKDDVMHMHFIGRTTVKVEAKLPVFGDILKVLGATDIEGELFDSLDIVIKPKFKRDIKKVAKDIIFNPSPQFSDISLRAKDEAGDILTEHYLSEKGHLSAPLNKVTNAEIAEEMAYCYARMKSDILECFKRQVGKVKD

B1: OR1-OR2 scrambled (dsDNA)
DNA 1: AGATCTACCGGTAGAGCTT
DNA 2: TAAGCTCTACCGGTAGATC
B2: OR1-OR2 (dsDNA)
DNA 1: AGATCTACCGGTAGAGCTT
DNA 2: TAAGCTCTACCGGTAGATC
modifications: m5C at position 8 of upper strand and position 10 of lower strand

Target: T1, RexA
Experiment: filter binding; 2 mM Mg2+; Filter binding: 25 mM MES pH 6.5, 2.0 mM MgCl2, 0.1 mM DTT, 0.01 mM EDTA, 40 ug/mL BSA, 30 C, 10 min, 14.5 nM unlabeled + 0.5 nM labeled DNA; SEC: Superdex 200
Conditions: protein: recombinant, tags: C-terminal 6xHis (pET21b), chain copies: 2, 5' overhang 1 nt at both ends

| Binder | binding result (label: 5'-32P) | binding result |
| --- | --- | --- |
| B1 | binds |  |
| B2 |  | binds |
